We go through two substances from article PMC12208556.

The Kd is the equilibrium constant for the complex coming apart.

The test has as its target recombinant full-length thrombospondin-1 (human) (UniProt P07996). Briefly: SPR; BIAcore 3000; TSP-1 bound covalently to CM5 chips at 0.1 uM; complement proteins as analytes at 12.3, 37.03, 111.1, 333.3, 1,000 nM in PBS plus 0.05% Tween 20; 1:1 Langmuir binding model; average of 3 repeated measurements.

Sequence of recombinant full-length thrombospondin-1 (human) (P07996 19-1170): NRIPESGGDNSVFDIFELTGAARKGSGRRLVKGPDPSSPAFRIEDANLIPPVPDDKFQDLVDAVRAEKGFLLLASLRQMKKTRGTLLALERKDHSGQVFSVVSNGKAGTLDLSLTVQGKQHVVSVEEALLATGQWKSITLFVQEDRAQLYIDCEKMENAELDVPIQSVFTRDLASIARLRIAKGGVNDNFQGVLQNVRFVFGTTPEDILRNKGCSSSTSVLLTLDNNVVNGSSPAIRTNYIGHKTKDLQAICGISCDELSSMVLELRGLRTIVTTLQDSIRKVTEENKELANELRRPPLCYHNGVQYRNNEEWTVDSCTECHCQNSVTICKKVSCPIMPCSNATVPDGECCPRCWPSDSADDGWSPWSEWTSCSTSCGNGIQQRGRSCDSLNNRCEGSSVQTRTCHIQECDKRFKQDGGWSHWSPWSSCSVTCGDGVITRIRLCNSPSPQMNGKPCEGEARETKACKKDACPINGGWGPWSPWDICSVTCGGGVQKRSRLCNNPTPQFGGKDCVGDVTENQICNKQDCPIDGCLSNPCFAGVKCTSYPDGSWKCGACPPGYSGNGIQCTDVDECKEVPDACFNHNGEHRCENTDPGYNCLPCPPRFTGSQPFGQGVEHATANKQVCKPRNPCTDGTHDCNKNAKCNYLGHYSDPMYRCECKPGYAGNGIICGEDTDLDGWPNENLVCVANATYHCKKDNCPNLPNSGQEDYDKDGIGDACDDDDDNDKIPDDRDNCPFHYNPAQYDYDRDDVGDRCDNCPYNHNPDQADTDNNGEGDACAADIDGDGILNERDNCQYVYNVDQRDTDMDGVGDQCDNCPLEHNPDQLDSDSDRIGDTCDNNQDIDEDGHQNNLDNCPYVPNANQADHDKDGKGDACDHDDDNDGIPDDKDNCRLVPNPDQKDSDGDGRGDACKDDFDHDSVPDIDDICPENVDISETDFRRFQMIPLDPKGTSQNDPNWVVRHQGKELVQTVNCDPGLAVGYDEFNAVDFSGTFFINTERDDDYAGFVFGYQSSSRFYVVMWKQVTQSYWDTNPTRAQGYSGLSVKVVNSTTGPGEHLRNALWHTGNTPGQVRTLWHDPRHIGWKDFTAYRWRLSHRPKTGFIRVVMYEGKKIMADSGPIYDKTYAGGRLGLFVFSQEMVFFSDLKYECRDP

On to complement C3 (natural protein), for which the Kd came out at 127 nM.

With complement C5 (natural protein), the Kd came to 47.2 nM.
